Data on one substance can be found in patent EP2411513B1.

The target in the assay is CD11b/CD18 receptor on J774A.1 murine monocytes/macrophages (murine) (UniProt P05555). Nature of the assay: cell-based or functional assay.

As for “CyaA/233OVA/K860R/AC- (from UniProt J7QLC0 1-1706)”, the Lysis of J774A.1 cells (% of AC-) is 72 % of AC-.
